The experiment addresses T1, human Melanoma-associated Chondroitin Sulfate Proteoglycan (MCSP) (human, UniProt Q6UVK1 30-2322).
T1 construct: whole, on cells; also called CSPG4; NG2
Put plainly: flow cytometry on B16F10-MCSP (C25) cells, detected with Strep-PE or fold-specific anti-H-2K antibody.

T1 sequence (Q6UVK1 30-2322): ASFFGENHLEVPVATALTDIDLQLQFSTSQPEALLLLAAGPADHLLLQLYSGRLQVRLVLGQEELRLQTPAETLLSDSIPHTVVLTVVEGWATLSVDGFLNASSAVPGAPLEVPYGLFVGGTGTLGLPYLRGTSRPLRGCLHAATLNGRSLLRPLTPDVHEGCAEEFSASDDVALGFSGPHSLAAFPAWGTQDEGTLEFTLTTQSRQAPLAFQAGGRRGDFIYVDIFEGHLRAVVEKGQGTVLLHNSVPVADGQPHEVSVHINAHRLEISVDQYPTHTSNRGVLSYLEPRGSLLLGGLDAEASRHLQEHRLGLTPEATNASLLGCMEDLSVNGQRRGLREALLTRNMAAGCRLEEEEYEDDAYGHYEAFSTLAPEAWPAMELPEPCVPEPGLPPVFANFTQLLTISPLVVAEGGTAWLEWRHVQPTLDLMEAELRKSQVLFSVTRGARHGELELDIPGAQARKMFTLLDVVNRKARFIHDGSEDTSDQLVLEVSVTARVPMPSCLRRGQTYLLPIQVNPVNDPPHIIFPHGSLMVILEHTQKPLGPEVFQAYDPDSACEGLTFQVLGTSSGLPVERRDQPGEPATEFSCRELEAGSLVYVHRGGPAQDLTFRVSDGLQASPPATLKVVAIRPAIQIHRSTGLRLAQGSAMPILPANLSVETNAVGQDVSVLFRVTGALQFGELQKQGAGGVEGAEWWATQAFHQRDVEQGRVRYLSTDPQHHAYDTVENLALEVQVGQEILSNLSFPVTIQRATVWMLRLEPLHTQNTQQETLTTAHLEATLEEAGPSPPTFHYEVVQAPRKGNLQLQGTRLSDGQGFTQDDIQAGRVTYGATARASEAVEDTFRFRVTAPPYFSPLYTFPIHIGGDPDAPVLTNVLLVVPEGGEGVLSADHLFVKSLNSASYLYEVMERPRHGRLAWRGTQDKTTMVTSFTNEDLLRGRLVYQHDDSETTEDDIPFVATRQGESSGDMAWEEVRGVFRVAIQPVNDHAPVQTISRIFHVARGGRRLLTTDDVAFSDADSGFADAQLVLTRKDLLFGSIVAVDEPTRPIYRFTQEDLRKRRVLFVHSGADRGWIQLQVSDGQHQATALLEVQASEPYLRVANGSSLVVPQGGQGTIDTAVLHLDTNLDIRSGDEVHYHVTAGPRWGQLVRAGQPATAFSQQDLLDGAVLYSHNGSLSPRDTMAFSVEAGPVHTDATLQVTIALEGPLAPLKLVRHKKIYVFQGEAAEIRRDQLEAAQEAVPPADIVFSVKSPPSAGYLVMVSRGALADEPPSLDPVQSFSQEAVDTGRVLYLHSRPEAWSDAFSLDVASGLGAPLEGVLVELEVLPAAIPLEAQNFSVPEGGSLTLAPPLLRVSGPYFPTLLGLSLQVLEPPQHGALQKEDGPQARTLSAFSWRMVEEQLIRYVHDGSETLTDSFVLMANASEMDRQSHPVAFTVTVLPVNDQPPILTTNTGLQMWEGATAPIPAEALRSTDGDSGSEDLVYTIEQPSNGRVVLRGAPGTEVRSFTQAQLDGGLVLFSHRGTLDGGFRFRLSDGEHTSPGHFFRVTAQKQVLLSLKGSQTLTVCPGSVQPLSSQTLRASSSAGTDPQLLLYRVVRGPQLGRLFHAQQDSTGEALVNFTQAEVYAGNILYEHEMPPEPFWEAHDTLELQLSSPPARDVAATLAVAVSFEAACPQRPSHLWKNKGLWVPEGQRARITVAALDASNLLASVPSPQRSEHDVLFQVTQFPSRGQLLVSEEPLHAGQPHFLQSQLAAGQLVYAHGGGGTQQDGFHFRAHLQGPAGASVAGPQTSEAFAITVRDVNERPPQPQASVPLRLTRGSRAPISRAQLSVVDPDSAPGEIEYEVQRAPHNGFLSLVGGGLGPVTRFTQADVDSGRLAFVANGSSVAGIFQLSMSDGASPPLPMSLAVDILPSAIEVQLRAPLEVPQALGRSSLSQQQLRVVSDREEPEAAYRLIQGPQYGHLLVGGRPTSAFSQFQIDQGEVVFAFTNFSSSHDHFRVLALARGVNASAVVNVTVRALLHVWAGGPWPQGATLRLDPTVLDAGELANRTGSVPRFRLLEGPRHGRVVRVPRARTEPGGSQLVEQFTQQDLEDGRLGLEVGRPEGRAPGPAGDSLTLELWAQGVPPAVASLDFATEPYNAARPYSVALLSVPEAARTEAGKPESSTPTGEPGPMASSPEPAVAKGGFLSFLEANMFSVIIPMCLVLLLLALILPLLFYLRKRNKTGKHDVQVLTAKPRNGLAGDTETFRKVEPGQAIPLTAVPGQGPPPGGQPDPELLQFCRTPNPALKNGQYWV

B1: BA3 biotinylated peptide-H-2Kd-anti-MCSP scFv fusion protein, 20 amino acid β2M-MHC linker (peptide-MHC)
chain: TYQRTRALVGGGGSGGGGSGGGGSIQKTPQIQVYSRHPPENGKPNILNCYVTQFHPPHIEIQMLKNGKKIPKVEMSDMSFSKDWSFYILAHTEFTPTETDTYACRVKHVSMAEPKTVYWDRDMGGGGSGGGGSGGGGSGGGGSGPHSLRYFVTAVSRPGLGEPRFIAVGYVDDTQFVRFDSDADNPRFEPRAPWMEQEGPEYWEEQTQRAKSDEQWFRVSLRTAQRYYNQSKGGSHTFQRMFGCDVGSDWRLLRGYQQFAYDGRDYIALNEDLKTWTAADTAALITRRKWEQAGDAEYYRAYLEGECVEWLRRYLELGNETLLRTDSPKAHVTYHPRSQVDVTLRCWALGFYPADITLTWQLNGEDLTQDMELVETRPAGDGTFQKWAAVVVPLGKEQNYTCHVHHKGLPEPLTLRWKLPPSTASGGQVKLQQSGGGLVQPGGSMKLSCVVSGFTFSNYWMNWVRQSPEKGLEWIAEIRLKSNNFGRYYAESVKGRFTISRDDSKSSAYLQMINLRAEDTGIYYCTSYGNYVGHYFDHWGQGTTVTVSSGGGGSGGGGSGGGGSDIELTQSPKFMSTSVGDRVSVTCKASQNVDTNVAWYQQKPGQSPEPLLFSASYRYTGVPDRFTGSGSGTDFTLTISNVQSEDLAEYFCQQYNSYPLTFGGGTKLEIKRAHHHHHHGLNDIFEAQKIEWH
notes: also called BA-biotin fusion molecule; biotinylated ScFv-MHC molecule
Consider B1, for which the binding result was “binds”.

The values above are taken from patent publication US20200385441A1 (TECHNION RESEARCH AND DEVELOPMENT FOUNDATION, published 2020).
